Test [1] deals with T1, SC-K^d -15 (Mus musculus, UniProt P01887+P01902).
T1 construct: connecting residue 276 of K^d heavy chain to the first residue of β2 -microglobulin; mature mouse beta2-microglobulin, fused after the spacer (same polypeptide); expressed in transfected cells; host or cells: monkey COS-1 cells, transient
T1 sequence (P01902+P01887 with tags, fused parts or gaps): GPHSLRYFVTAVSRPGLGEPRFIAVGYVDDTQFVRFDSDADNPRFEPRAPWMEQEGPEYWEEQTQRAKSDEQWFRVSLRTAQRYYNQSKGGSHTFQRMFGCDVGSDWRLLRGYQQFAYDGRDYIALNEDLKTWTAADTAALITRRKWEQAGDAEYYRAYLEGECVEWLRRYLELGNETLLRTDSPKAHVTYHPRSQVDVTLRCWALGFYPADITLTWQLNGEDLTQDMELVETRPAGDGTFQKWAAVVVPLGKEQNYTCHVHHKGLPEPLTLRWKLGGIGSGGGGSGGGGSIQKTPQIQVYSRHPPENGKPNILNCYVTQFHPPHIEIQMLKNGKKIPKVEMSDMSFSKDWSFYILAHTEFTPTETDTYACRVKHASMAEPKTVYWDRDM
In words: Direct peptide binding assay: 35S-labeled SC-Kd-15 on plastic-coated peptides. The following applies: for ^35 S-labeled SC-Kd bound to coated peptide: duplicates; for binding of peptide to SC-K^d -15 (in words): direct assay. Here is the method:
(§1) Direct Peptide Binding Assay. Wells of microtiter plates are pretreated with 100 μl 2.5% glutaraldehyde in distilled water for 2 h at 20° C., washed with distilled water, […] buffer, pH 9.6, or in PBS, pH 7.4 or pH 5.0. Remaining free sites are blocked by incubation for 2 h at 20° C. with BSA diluted 1% in PBS containing 0.05% Tween 20 (Tw) and 0.02% sodium azoture. […] After extensive washing, the radioactivity of each well is counted.
COS-1 cells (usually 10^7 cells) were transfected with pSC-K^d -15 DNA, labeled and lysed as above. […] After the final wash in PBS, SC-K^d -15 was eluted from the matrix with an equal volume of 3 M thiocyanate for 10 min on ice. After an overnight dialysis in PBS containing 0.1% NP40, 0.05% Tween and 0.2% BSA, SC-K^d -15 was used in direct binding test as below. Its purity was assessed by SDS-PAGE.
K^d molecules isolated from the spleen of BALB/c mice were then purified and iodinated.

The next test addresses HLA-DR3 (Homo sapiens, UniProt P01903+P01911). In words: Direct peptide binding assay: 125I-labeled HLA-DR3 (positive control). The following applies: for binding of peptide to HLA-DR3 positive control (in words): direct assay. Here is the method:
as §1

Test [2] deals with T1, SC-K^d -15. In words: Competition experiment, env 312-327 bound to plastic, 35S-labeled SC-Kd. The following applies: Table (B) shows it for SC-Kd and H-2K. Type of test: binding.
The next test concerns the target HLA-DRw13 (Homo sapiens, UniProt P01903+P01911). In words: Direct peptide binding assay: 125I-labeled HLA-DRw13 (positive control). Particulars: for binding of peptide to DRw13 positive control (in words): direct assay, printed DR213. Here is the method:
Direct Peptide Binding Assay. Wells of microtiter plates are pretreated with 100 μl 2.5% glutaraldehyde in distilled water for 2 h at 20° C., washed with distilled water, and coated for 16 h at 4° C. with 100 μl of peptide diluted at 5 μg/ml either in carbonate-bicarbonate buffer, pH 9.6, or in PBS, pH 7.4 or pH 5.0. Remaining free sites are blocked by incubation for 2 h at 20° C. with BSA diluted 1% in PBS containing 0.05% Tween 20 (Tw) and 0.02% sodium azoture. […] After extensive washing, the radioactivity of each well is counted.

The target in the next test is T2, H-2K (Mus musculus, UniProt P01902).
T2 construct: K^d molecules isolated from the spleen of BALB/c mice were then purified and iodinated; from tissue; host or cells: spleen of BALB/c mice
T2 sequence (P01902 22-368): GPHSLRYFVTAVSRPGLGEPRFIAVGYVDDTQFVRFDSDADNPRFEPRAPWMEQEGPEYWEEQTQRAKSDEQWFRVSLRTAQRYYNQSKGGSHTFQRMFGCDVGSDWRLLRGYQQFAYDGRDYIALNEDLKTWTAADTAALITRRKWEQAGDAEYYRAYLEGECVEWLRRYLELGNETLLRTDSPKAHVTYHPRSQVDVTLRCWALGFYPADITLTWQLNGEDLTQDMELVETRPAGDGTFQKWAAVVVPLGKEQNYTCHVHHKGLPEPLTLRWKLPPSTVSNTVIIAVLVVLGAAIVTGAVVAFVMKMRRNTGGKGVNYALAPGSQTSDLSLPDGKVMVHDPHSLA
T2 sequence (P01887 21-119 partner): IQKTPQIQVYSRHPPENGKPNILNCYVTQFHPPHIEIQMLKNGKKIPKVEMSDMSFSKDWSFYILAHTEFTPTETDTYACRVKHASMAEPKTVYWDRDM
The experiment in a line: Direct peptide binding assay: 125I-labeled conventional Kd from BALB/c spleen. Here is the method: Direct Peptide Binding Assay. Wells of microtiter plates are pretreated with 100 μl 2.5% glutaraldehyde in distilled water for 2 h at 20° C., washed with distilled water, and coated for 16 h at 4° C. with 100 μl of peptide diluted at 5 μg/ml either in carbonate-bicarbonate buffer, pH 9.6, or in PBS, pH 7.4 or pH 5.0. Remaining free sites are blocked by incubation for 2 h at 20° C. with BSA diluted 1% in PBS containing 0.05% Tween 20 (Tw) and 0.02% sodium azoture. After washing, purified ^125 I-HLA molecules (100 μl containing 1.5×10^5 cpm, 10^-9 M) diluted in PBS containing 1% BSA, 0.05% Tw, 0.02% sodium azoture, 1 mM PMSF, and 10 μg/ml trypsin inhibitor are added and incubated for 20 h at 20° C. After extensive washing, the radioactivity of each well is counted.
Peptides used in this study are described in Choppin et al. (Choppin, J., Martinon, F., Gomard, E., Bahraoui, E., Connan, F., Bouillot, F., and Levy, J. -P, J. Exp. Med., 1990. 172:889 and references therein), except for HLA-Cw3 and HLA-A24 described in Maryanski, J. Ll, Pala, P., Cerottini, J. -C, and Corradin, G., J. Exp. Med. 1988. 167:1391. Binding assays were performed as described in Choppin, J., Martinon, F., Gomard, E., Bahraoui, E., Connan, F., Bouillot, F., and Levy, J. -P, J. Exp. Med., 1990. 172:889. […]

Where “and” joins values, the source holds several entries; their conditions need not be identical. Identical values can stand only once.

Sequence of HLA-DR3 (P01903 26-254): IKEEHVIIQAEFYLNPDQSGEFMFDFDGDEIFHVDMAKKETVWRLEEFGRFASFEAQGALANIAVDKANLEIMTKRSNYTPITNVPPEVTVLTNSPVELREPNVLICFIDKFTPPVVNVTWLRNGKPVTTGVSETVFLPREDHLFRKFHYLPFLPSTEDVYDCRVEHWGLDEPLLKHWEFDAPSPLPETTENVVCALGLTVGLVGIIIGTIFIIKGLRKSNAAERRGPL
Sequence of HLA-DR3 (P01911 30-266): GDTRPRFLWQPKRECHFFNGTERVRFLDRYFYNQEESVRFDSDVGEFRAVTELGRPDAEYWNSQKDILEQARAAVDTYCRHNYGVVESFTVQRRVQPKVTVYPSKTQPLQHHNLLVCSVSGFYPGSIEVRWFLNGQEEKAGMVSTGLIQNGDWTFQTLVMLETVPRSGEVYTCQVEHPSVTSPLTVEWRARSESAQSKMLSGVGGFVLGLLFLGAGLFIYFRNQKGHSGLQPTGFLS
Sequence of HLA-DRw13 (P01903 26-254): as the sequence (P01903 26-254) above
Sequence of HLA-DRw13 (P01911 30-266): as the sequence (P01911 30-266) above

Consider LFIHFRIGCRHSR [vpr 68-80], for which the “^35 S-labeled SC-Kd bound to coated peptide” value in the test with SC-K^d -15 [1] (Table 10 (A), peptide 10 μg/ml, pH 5, input 10,000 cpm) is 710 cpm and 621 cpm. For the same sequence, in the test with SC-K^d -15 [1], the “binding of peptide to SC-K^d -15 (in words)” value is reported as “significant binding”. Moreover, the “^125 I-labeled HLA-DR3 bound to coated peptide” value with HLA-DR3 (Table 10 (A), peptide 10 μg/ml, pH 5, input 200000 cpm, first value of cell, duplicates) is 18582 cpm and 18245 cpm. Also, the “binding of peptide to HLA-DR3 positive control (in words)” value with HLA-DR3 is reported as “significant binding”. For the same sequence, the “competition with plastic-bound env 312-327 peptide (in words)” value with SC-K^d -15 [2] is reported as “competed efficiently”. Further, the “^125 I-labeled HLA-DRw13 bound to coated peptide” value with HLA-DRw13 (Table 10 (A), peptide 10 μg/ml, pH 5, input 200000 cpm, second value of cell, duplicates) was 21838 cpm and 20593 cpm. For the same sequence, in the test with HLA-DRw13, the “binding of peptide to DRw13 positive control (in words)” value is “significant binding”.
For “IRIQRGPGRAFVTIGK [env 312-327, HIV 1 Env peptide, residues 312-327]”, the “^35 S-labeled SC-Kd bound to coated peptide” value was determined as 750 cpm with SC-K^d -15 [1] (Table 10 (A), peptide 30 μg/ml, pH 9.6, input 10,000 cpm) and 390 cpm in the test with SC-K^d -15 [1] (Table (B), peptide 5 μg/ml, pH 9.6, input 6000 cpm, no coated peptide 228/223). Moreover, in the test with SC-K^d -15 [1], the “binding of peptide to SC-K^d -15 (in words)” value is “significant binding”. In addition, the “binding of peptide to HLA-DR3 positive control (in words)” value with HLA-DR3 is recorded as “significant binding”. Moreover, in the test with H-2K, the “binding of peptide to conventional K^d (in words)” value was “found to bind”. The “binding of peptide to DRw13 positive control (in words)” value in the test with HLA-DRw13 is given as “significant binding”.
